Reference: publication PMC2629585, “Local Inflammation Induces Complement Crosstalk Which Amplifies the Antimicrobial Response” (PLoS Pathogens, 2009)

Molecular target: T1, C1q (UniProt P02745 23-245; P02746 28-253; P02747 29-245)
T1 construct: complement C1q subcomponent subunit A; complement C1q subcomponent subunit B; complement C1q subcomponent subunit C; source: bought: Quidel (San Diego, CA); copies: + +
Experiment: ELISA; competition; 0.8 ug CRP immobilised; 0.8 ug C1q with increasing L-ficolin or 0.8 ug L-ficolin with increasing C1q; TBS, 0.05% Tween-20, 1% HSA, pH 7.4, 2.5 mM calcium
Settings: both partners purified

T1 sequence (P02745 23-245, chain 1 of 3): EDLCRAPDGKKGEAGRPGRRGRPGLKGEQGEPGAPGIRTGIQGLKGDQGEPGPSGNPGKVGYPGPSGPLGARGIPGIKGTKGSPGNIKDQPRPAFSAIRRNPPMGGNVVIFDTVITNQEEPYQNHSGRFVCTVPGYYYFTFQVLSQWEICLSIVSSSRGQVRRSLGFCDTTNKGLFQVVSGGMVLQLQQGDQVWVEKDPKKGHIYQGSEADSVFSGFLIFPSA
T1 sequence (P02746 28-253, chain 2 of 3): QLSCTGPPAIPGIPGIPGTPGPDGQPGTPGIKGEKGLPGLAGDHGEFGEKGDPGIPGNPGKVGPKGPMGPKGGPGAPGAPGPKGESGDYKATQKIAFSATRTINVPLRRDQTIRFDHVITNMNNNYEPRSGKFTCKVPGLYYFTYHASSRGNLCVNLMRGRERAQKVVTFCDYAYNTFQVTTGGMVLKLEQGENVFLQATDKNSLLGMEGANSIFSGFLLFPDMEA
T1 sequence (P02747 29-245, chain 3 of 3): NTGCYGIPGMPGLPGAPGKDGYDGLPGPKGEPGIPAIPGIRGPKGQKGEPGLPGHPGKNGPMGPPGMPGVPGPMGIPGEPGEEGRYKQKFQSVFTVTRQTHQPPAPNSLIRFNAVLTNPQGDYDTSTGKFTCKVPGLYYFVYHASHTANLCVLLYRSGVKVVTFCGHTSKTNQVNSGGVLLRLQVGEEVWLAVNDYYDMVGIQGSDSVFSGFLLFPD

B1: C-reactive protein (CRP), human, purified (Sigma) (natural protein, UniProt P02741 19-224, looked up)
chain: QTDMSRKAFVFPKESDTSYVSLKAPLTKPLKAFTVCLHFYTELSSTRGYSIFSYATKRQDNEILIFWSKDIGYSFTVGGSEILFEVPEVTVAPVHICTSWESASGIVEFWVDGKPRVRKSLKKGYTVGAEASIILGQEQDSFGGNFEGSQSLVGDIGNVNMWDFVLSPDEINTIYLGGPFSPNVLNWRALKYEVQGEVFTKPQLWP
notes: human C-reactive protein, bought from Sigma; purity checked by SDS PAGE and mass spectrometry; source: bought: Sigma
binding result: binds
